Biological target: T1, cathepsin D (Bos taurus, UniProt P80209)
T1 construct: Prior to digestion with bovine spleen cathepsin D (Sigma); purchased Sigma; host or cells: bovine spleen (tissue-derived enzyme)
Assay: Exposure of LF digest to cathepsin D, persistence of the 6 kDa polypeptide
Assay type: in vitro ADME, bovine
Settings: immunoblot
Source text: To establish which protease(s) could be responsible for releasing the N-terminal domain, LF processing by several proteases relevant to inflammation or microbial infections, including elastase, cathepsins G and D, a matrix metalloproteinase, and the “V8” protease from S. aureus, was examined. Of these, only cathepsin D, a lysosomal protease abundant in phagocytes (Bever et al., Inflammation 13: 309-16 (1989); Levy et al., Infect. Immun. 57: 1632-4 (1989)), was able to liberate the N-terminus intact as a small, heparin-binding, polypeptide. Exposure of either iron-saturated or iron-free LF to even small amounts of cathepsin D (1/200th, w:w) for a period as brief as five minutes yielded the N-terminal 6 kDa polypeptide, detectable by immunoblot analysis, using the N-terminal peptide-specific antibody. […] MALDI mass spectrometry analysis indicated a molecular mass of 5741 Da, very close to the value of 5744 Da expected for a LF polypeptide starting at Gly-1 and ending with Ala-49.
Purification of LF from human colostrum and proteolytic liberation of the antimicrobial domain in vitro. Frozen colostrum was thawed at 37° C. and defatted by centrifugation for 40 min at 10,000×g at 4° C. […] LF concentration was determined spectrophotometrically at 280 nm (using E280nm 1 cm 0.1%=1.0402). […]

T1 sequence (P80209 45-390): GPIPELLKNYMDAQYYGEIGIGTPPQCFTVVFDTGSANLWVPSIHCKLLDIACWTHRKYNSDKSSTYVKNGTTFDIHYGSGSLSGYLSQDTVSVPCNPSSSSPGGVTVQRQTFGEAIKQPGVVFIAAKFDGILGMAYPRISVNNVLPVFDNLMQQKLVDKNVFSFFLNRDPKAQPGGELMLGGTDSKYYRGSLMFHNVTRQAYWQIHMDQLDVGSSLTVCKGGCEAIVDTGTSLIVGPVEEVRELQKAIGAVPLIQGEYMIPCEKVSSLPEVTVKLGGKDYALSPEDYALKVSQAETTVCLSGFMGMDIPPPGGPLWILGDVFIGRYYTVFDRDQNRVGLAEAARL

6 kDa polypeptide: 6 kDa fragment produced by cathepsin D digestion of human LF, amino acids 1-49 of SEQ ID NO: 2 (GRRRRSVQWCAVSQPEATKCFQWQRNMRKVRGPPVSCIKRDSPIQCIQA; listed as Homo sapiens)
stability of the polypeptide on longer exposure to cathepsin D: stable and resistant to further degradation for at least three days

Source: US6399570B1, “Antimicrobial/endotoxin neutralizing polypeptide” (priority 1999, dated 2002)
